This note sets out measurements from patent US20210052701A1, “Methods of Treating Vascular Leakage Using CXCL12 Peptides” (The Medical College of Wisconsin, Inc., priority 2018, published 2021).

For the test, the target named is T1, CXCR4 (Homo sapiens, UniProt P61073).
T1 construct: host or cells: HTLA cells (HEK293 line stably expressing a tTA-dependent luciferase reporter and a β-arrestin2-TEV fusion gene)
As to the kind of experiment: Presto-Tango β-arrestin 2 recruitment assay for CXCR4. The class given is cell-based. The protocol:
FIGS. 6A-6F show Presto-Tango β-arrestin 2 recruitment assays for CXCR4 (A-C) and ACKR3 (D-F). RLU %: % of the luminescence signal for 1 μM CXCL12α. N=9 for CXCL12a and n=3 for all other proteins.
Presto-Tango β-arrestin 2 recruitment assay—The PRESTO-Tango (parallel receptorome expression and screening via transcriptional out-put, with transcriptional activation following arrestin translocation) assay was performed as recently described. The Tango plasmids were a gift from Dr. Bryan Roth (all from Addgene). HTLA cells (2.5×10^5/well) were seeded in a 6-well plate and transfected with 1.5 μg of the Tango plasmids using Lipofectamine 3000 (ThermoScientific). The following day, transfected HTLA cells (1×10^5 cells/well) were plated onto Poly-L-Lysine pre-coated 96-well micro-plates and allowed to attach to the plate surface for at least 4 hours prior to treatment. Proteins used for treatment were prepared in twice the final concentration in culture media, added at a 1:1 vol/vol ratio and incubated overnight at 37° C., 5% CO2 in a humidified environment. The following morning, media was removed from cell culture plates and replaced with a 100 μL 1:5 mixture of Bright-Glo (Promega) and 1×HBSS, 20 mM HEPES solution. Plates were then incubated at room temperature before measuring luminescence on a Biotek Synergy II plate reader.

T1 sequence (P61073 whole entry, the tested form may be a part): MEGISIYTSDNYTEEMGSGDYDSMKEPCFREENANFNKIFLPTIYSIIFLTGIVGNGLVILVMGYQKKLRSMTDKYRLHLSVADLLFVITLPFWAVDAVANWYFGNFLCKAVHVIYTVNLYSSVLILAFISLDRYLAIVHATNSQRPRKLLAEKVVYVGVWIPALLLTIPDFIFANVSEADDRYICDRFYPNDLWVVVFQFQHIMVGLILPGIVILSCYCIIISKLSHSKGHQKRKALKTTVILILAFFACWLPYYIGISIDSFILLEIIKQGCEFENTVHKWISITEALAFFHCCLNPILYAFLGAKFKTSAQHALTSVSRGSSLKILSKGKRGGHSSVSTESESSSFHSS

Regarding “CXCL12: Wild-type CXCL12 (SEQ ID NO:1), cognate agonist of CXCR4 and ACKR3”, the “potency (EC50) to recruit β-arrestin 2 to CXCR4, compared with CXCL12α” value is “no statistically significant differences”.
